Laboratory results published in publication PMC6427009 (Scientific Reports, 2019).

Target: Hemagglutinin of Influenza A/California/07/2009 (H1N1) (Influenza A/California/07/2009 (H1N1), UniProt C3W5X2, fully glycosylated (7 glycosylation sites))
Experiment: HDX-MS
Conditions: both partners purified

B1: llama single-domain antibody SD38 (VHH)
VHH: EVQLVESGGGLVQPGGSLRLSCAVSISIFDIYAMDWYRQAPGKQRDLVATSFRDGSTNYADSVKGRFTISRDNAKNTLYLQMNSLKPEDTAVYLCHVSLYRDPLGVAGGMGVYWGKGALVTVSS
notes: also called Llama single domain SD38
- binding result: binds
